B1: Clone 138 4-1BB antibody (IgG2b) (antibody, V domains shown)
VH: VQLQESGGGLVKPGGSLKLSCAASGFTFSDYGMHWVRQAPEKGLEWVAYISSGSNSIYYADTVTGRFTISRDNAKNTLFLQMTSLRSEDTAMYYCASNNGYFYFDYWGQGTTLTVSS
VL: IVITQSPAILSASPGEKVTMTCRASSSVSYMHWYQQKPGSSPKPWIYATSNLASGVPARFSGSGSGTSYSLTVSRVEAEDAATYYCQQWSSDPFTFGSGTKLEIK
B2: Clone 54 4-1BB antibody (IgG2a) (antibody, V domains shown)
VH: EFQLQQSGPELVKPGASVKISCKASGYSFTDYNMNWVKQSNGKSLEWIGVINPNYGTTSYNQKFKGKATFTVDQSSSTAYMQLNSLTSEDSAVYYCARSPVEDYFDYWGQGTTLTVSS
VL: ENVLTQSPAIMSASPGEKVTMTCRARSSVSSSYLHWYQQKSGASPKLWIYSTSNLASGVPARFSGSGSGTSYSLTISSVEAEDAATYYCQQYSGYPLITFGAGTKLELKR
B3: Clone 49A 4-1BB antibody (IgG1) (antibody, V domains shown)
VH: VKLQQSGPELVKPGASVKISCKASGYTFTDYYMNWVKESHGKSLEWIGDINPNNGGSTYYNQKFKGKATLTVEKSSSTAFMELRSLTSEDSAVYYCARSLYGSTYYFDYWGQGTPLTVSS
VL: DIVLTQSPASLAVSLGQRATISCKASQSVDYDGDSYMNWYQQKPGQPPKLLIYAASNLESGIPARFSGSGSGTDFTLNIHPVEEEDAGTYYCQQSNDDPWTFGGGTKLEIK

Biological target: recombinant human 4-1BB (human, UniProt Q07011 24-186)
Sequence (Q07011 24-186): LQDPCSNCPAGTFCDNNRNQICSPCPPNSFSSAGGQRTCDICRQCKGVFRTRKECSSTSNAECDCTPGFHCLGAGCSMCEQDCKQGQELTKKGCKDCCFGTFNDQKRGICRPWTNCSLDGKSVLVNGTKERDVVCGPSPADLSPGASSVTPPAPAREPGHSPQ
Test: ELISA

Binder	EC50 [ng/mL]
B1	4.71
B2	16
B3	1.32
